One data set deals with Khc-FL (Drosophila melanogaster, UniProt P17210 1-975). Briefly: EMSA. (In general: Mobility shift assays separate free from complexed probe on a gel.)
A further data set deals with Khc 855-941 (Drosophila melanogaster, UniProt P17210 855-941). As to the kind of experiment: EMSA.
Sequence of Khc 855-941 (P17210 855-941): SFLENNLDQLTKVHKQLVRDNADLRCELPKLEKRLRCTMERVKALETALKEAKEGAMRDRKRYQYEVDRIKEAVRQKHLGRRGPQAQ

Sequence of Khc-FL (P17210 whole entry): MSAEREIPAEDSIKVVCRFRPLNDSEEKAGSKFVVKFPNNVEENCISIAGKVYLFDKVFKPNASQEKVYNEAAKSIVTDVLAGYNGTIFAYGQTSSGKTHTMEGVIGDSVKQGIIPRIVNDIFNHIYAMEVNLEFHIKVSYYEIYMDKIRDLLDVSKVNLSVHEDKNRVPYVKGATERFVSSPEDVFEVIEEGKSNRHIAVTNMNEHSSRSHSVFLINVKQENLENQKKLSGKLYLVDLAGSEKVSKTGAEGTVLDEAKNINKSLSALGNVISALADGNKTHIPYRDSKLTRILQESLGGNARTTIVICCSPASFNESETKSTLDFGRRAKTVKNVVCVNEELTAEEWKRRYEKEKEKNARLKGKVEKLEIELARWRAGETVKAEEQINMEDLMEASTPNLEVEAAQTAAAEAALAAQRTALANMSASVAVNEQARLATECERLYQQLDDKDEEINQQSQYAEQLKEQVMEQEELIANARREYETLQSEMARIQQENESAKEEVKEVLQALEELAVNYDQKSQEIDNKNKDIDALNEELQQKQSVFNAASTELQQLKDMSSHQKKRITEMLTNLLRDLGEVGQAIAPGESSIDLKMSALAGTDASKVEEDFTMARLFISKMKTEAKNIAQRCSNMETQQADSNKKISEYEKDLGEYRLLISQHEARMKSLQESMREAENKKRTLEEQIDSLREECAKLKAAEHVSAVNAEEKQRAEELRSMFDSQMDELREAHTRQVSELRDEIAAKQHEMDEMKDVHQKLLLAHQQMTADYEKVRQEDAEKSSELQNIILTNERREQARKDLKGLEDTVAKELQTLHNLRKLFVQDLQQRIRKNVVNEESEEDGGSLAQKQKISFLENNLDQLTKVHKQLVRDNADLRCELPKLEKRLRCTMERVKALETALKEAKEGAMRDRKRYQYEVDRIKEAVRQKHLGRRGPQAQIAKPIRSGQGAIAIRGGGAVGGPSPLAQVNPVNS

In the case of UUUUUUUUUUUUUUUUUUUUUUUUU (ssRNA) [oligo-(U25) RNA], the binding result with Khc-FL and with Khc 855-941 was “binds” throughout.

Values taken from PMC8247599.
